B1: PCDH15-CD3 C-terminal peptide (biotin-TTDS-MGPWNSLHIPMTKL) (peptide)
peptide: {Biotin-TTDS}-MGPWNSLHIPMTKL
notes: C-terminal 14 aa of protocadherin-15 isoform CD3, including the PBM; source: synthetic peptide (Eurogentec); not shown: biotin, N-terminal, kept
B2: PCDH15-CD2 C-terminal peptide (biotin-TTDS-GANSEQYNTAL) (peptide)
peptide: {Biotin-TTDS}-GANSEQYNTAL
notes: C-terminal 11 aa of protocadherin-15 isoform CD2, including the PBM; source: synthetic peptide (Eurogentec); not shown: biotin, N-terminal, kept
B3: PCDH15-CD1 C-terminal peptide (biotin-TTDS-GIDVQPHSQSTSL) (peptide)
peptide: {Biotin-TTDS}-GIDVQPHSQSTSL
notes: C-terminal 13 aa of protocadherin-15 isoform CD1, including the PBM; source: synthetic peptide (Eurogentec); not shown: biotin, N-terminal, kept

No end group written: not given here. *: point of attachment. Biotin = O=C1N[C@H]2[C@H](CS[C@H]2CCCCC(=O)*)N1; TTDS = trioxatridecan-succinamic acid spacer

The term Kd denotes the constant that tells how readily two partners part at equilibrium. The low end stands for higher affinity, the high end for lower affinity.

The first experiment concerns the target T1, harmonin-NTD-PDZ1 (aa 1-192) (UniProt Q9ES64 1-192).
T1 construct: extra 7 aa at the N-terminus of all recombinant proteins of the study; harmonin, residues 1-192 (NTD and PDZ1), numbers on GenBank AF228925.1; also called NTD-PDZ1-Hp domain of harmonin; source: E. coli BL21 (DE3) codonPlus-RIPL, purified (Glutathione Sepharose 4B, GST removed by TEV proteinase, SEC)
T1 sequence: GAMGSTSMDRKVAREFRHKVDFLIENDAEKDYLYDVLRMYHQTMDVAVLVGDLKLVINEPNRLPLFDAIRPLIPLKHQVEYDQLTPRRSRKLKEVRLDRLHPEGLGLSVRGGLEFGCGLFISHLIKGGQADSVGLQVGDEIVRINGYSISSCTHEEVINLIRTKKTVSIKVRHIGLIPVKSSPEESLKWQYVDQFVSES
Nature of the experiment: SPR; harmonin fragments or full-length harmonin-a1 with C-terminal peptides; Fig. S10 and data not shown. Conditions: both partners purified. In general terms: Surface plasmon resonance follows binding to a sensor surface in real time, without labels.
On to B1, for which the Kd is > 200 µM.
As for B2, the Kd is > 200 µM.
The same measure, in the same setting: the figure for B3 is > 200 µM.

In another experiment the target is T2, harmonin-PDZ2 (aa residues 197-308) (UniProt Q9ES64 197-308).
T2 construct: extra 7 aa at the N-terminus of all recombinant proteins of the study; harmonin, residues 197-308 (PDZ2), numbers on GenBank AF228925.1; also called PDZ2 domain of harmonin; source: E. coli BL21 (DE3) codonPlus-RIPL, purified (Glutathione Sepharose 4B, GST removed by TEV proteinase, SEC)
T2 sequence: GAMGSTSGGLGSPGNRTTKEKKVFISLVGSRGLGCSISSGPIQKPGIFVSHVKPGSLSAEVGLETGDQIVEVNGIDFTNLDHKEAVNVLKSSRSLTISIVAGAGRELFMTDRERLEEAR
Described as above. Particulars: both partners purified.
In the case of B1, the Kd was > 200 µM.
Same read-out and setting: the figure for B2 is > 200 µM; for B3 it is > 200 µM.

For the next experiment, the target named is T3, whirlin PDZ1-Hp (aa residues 137-246) (mouse, UniProt Q80VW5-1 137-246).
T3 construct: extra 7 aa at the N-terminus of all recombinant proteins of the study; whirlin, residues 137-246: PDZ1 with its hairpin extension Hp1; also called PDZ1 + Hp1; whirlin PDZ1-Hp1 fragment
T3 sequence: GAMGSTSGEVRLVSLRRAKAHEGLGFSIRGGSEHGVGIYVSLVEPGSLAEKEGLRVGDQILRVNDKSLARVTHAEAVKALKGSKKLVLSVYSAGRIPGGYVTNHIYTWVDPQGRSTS
Nature of the experiment: SPR; ProteOn XPR 36; N-terminally biotinylated peptides captured on a Neutravidin NLC sensor chip, whirlin fragments flowed as analytes at 20 μL/min for 2 min; 250 mM NaCl, 50 mM Tris pH 7.5, 0.5 mM TCEP; steady-state fit Req = (Rmax*C)/(Kd+C); mean of three experiments; Figure 4B shows the responses at 10 μM. Particulars: both partners purified.
As to B1, the Kd turned out to be 11 µM. This counts as double-digit micromolar.
The same measure, in the same setting: the figure for B2 is 33 µM; for B3 it is 29 µM.

Another experiment addresses T4, whirlin-PDZ1 (aa residues 137-228) (mouse, UniProt Q80VW5-1 137-228).
T4 construct: extra 7 aa at the N-terminus of all recombinant proteins of the study; whirlin, residues 137-228: PDZ1 domain; also called whirlin PDZ1 domain alone; source: E. coli BL21 (DE3) codonPlus-RIPL, purified (Glutathione Sepharose 4B, GST removed by TEV proteinase, SEC)
T4 sequence: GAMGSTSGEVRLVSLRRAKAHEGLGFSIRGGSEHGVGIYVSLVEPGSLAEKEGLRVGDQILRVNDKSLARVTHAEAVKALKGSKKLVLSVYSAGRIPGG
Described as above. Conditions: both partners purified.
As to B1, the Kd was 34 µM.
With B2, the Kd stood at 147 µM.
On the same count and under the same terms, the figure for B3 is 106 µM.

Another experiment deals with T5, whirlin-PDZ3 (aa residues 821-915) (mouse, UniProt Q80VW5-1 821-915).
T5 construct: extra 7 aa at the N-terminus of all recombinant proteins of the study; whirlin, residues 821-915: PDZ3 domain, common to L- and S-whirlin; also called whirlin PDZ3 domain
T5 sequence: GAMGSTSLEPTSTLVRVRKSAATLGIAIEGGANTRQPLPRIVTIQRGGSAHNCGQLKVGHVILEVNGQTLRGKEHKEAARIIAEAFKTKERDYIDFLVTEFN
The description is as above. Conditions: both partners purified.
With B1, the Kd is 230 µM.
Same read-out and setting: the figure for B2 is > 1000 µM.
Same read-out and setting: the figure for B3 is > 1000 µM.

The next experiment has as its target T6, whirlin-NTR (aa residues 2-147) (mouse, UniProt Q80VW5-1 2-147).
T6 construct: extra 7 aa at the N-terminus of all recombinant proteins of the study; also called entire NTR of whirlin (containing the HHD1 domain); source: E. coli BL21 (DE3) codonPlus-RIPL, purified (Glutathione Sepharose 4B, GST removed by TEV proteinase, SEC)
T6 sequence: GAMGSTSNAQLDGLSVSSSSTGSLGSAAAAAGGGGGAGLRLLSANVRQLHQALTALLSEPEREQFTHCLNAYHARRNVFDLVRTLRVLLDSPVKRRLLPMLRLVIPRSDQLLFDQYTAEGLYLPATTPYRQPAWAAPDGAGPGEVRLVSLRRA
Described as above. Particulars: both partners purified.
Consider B1, for which the Kd was > 1000 µM.
On the same count and under the same terms, the figure for B2 is > 1000 µM; for B3 it is > 1000 µM.

In a further experiment the target is T7, whirlin-PDZ2 (aa residues 272-368) (mouse, UniProt Q80VW5-1 272-368).
T7 construct: extra 7 aa at the N-terminus of all recombinant proteins of the study; whirlin, residues 272-368: PDZ2 domain; source: E. coli BL21 (DE3) codonPlus-RIPL, purified (Glutathione Sepharose 4B, GST removed by TEV proteinase, SEC)
T7 sequence: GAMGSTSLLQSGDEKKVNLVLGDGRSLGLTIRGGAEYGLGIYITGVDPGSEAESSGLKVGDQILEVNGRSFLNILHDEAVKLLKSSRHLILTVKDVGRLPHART
The experiment is described as above. Particulars: both partners purified.
Consider B1, for which binding was put at a Kd of 460 µM.
Still for that read-out and setting: the figure for B2 is > 1000 µM.
For the molecule B3, the Kd was > 1000 µM.

Values taken from publication PMC7532178, “Interaction of protocadherin-15 with the scaffold protein whirlin supports its anchoring of hair-bundle lateral links in cochlear hair cells” (Scientific Reports, 2020).
